T1: Human FcγRIIb extracellular domain (human, UniProt P31994 43-217)
T1 construct: extracellular domain
T1 sequence (looked up): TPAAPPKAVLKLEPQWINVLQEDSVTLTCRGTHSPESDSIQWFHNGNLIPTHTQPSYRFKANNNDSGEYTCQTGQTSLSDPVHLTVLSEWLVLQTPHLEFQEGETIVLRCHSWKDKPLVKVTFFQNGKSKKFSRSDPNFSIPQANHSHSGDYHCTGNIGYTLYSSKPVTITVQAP

T2: Human FcγRIIa extracellular domain (human, UniProt P12318 34-217)
T2 construct: extracellular domain
T2 sequence (looked up): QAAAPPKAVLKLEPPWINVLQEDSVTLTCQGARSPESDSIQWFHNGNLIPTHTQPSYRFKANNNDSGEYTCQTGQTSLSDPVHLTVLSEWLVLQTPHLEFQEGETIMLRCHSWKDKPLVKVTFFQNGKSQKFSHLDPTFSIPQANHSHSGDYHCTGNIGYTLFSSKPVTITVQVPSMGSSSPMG


Experiments:
Experiment in all cases: SPR (ProteOn XPR36), antibody immobilised, steady state, pH 7.4
[1] = target: T1, Human FcγRIIb extracellular domain
Method: (§1) Experiments were performed using the ProteOn XPR36 surface plasmon resonance system (Bio Rad). Phosphate buffered saline with 0.005% Tween 20 (PBS/Tween), pH 7.4 was used as running buffer for most experiments with the exception of Human FcRn (extracellular domain) binding in which Phosphate buffered saline with 0.005% Tween 20 (PBS/Tween), pH 6.0 was used. All experiments were performed at 25° C. Antibodies were immobilized on a ProteOn™ GLC Sensor Chip (#176-5011) using EDAC (1-Ethyl-3-[3-dimethylaminopropyl]carbodiimide) and sulfo-NHS (N-hydroxysulfosuccinimide) to an R.U. (response unit) level of 4000-6000. C1q, FcγRI, FcγRIIa, FcγRIIb, FcγRIII(158V), FcγRIII(158F), and FcRn were then flowed over the IgG immobilized surface at various concentrations at a rate of 25 μl/minute for a long enough period of time to achieve steady state, or near steady state. Binding (if any could be determined) was quantified via steady state equilibrium binding analysis using the ProteOn software. Human FcγRI, FcγRIIa, FcγRIIb, FcγRIII(158V), FcγRIII(158F), and FcRn extracellular domains were generated via mammalian expression vectors in house. Human C1q was obtained from Quidel (CA).

[2] = target: T2, Human FcγRIIa extracellular domain
Method: as §1

[3] = target: T3, Human FcγRIa extracellular domain (human, UniProt P12314 16-292)
T3 construct: extracellular domain
T3 sequence (P12314 16-292): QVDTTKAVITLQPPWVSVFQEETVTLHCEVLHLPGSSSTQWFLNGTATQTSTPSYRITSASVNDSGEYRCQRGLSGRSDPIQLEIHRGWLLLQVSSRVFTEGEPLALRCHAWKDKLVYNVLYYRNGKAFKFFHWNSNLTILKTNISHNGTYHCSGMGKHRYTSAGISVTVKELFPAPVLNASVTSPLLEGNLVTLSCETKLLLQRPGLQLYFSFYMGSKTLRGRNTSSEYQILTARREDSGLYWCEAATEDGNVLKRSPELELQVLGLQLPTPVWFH
Method: as §1

[4] = target: T4, Human FcγRIIIa (158F) extracellular domain (human, UniProt P08637 17-208)
T4 construct: extracellular domain; also called FcγRIII(158F)
T4 sequence (P08637 17-208): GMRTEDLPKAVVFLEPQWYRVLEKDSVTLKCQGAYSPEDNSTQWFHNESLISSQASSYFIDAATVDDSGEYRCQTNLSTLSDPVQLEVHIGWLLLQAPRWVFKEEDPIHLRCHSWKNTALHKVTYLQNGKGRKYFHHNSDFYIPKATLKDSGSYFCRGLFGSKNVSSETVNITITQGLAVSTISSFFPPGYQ
Method: as §1

Human C1q = target: T5, Human C1q (human, UniProt P02745 23-245; P02746 28-253; P02747 29-245)
T5 construct: Bought complement protein; In the CDC assay C1q came with human serum
T5 sequence (P02745 23-245 limits assumed, chain 1 of 3): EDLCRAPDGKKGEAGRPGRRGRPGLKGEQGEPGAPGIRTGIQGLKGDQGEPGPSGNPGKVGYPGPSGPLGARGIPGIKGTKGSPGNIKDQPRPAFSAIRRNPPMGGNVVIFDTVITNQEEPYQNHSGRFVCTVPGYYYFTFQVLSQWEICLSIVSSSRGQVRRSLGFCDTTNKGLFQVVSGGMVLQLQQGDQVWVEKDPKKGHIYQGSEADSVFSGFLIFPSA
T5 sequence (P02746 28-253 limits assumed, chain 2 of 3): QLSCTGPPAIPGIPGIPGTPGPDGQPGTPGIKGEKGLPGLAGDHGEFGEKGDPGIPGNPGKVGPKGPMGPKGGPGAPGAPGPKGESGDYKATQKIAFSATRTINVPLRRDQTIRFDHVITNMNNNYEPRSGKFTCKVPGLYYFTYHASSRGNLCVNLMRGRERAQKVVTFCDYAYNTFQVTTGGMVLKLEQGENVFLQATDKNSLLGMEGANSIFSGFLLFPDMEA
T5 sequence (P02747 29-245 limits assumed, chain 3 of 3): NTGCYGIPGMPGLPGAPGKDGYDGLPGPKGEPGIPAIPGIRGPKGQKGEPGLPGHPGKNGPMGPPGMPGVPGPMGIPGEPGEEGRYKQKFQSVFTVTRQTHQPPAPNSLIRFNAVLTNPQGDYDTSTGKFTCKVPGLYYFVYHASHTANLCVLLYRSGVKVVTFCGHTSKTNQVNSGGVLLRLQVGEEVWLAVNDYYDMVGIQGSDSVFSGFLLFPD
Method: as §1

[5] = target: T6, Human FcγRIIIa (158V) extracellular domain (human, UniProt P08637 17-208)
T6 construct: extracellular domain; Position 158 is the usual allotype numbering (mature protein), not the precursor numbering of the database entry; also called FcγRIII(158V)
T6 sequence (P08637 17-208 F176V): as the sequence (P08637 17-208) above, with F160V counted along it
Method: as §1

Row | Binder | binding result [1] | binding result [2] | binding result [3] | binding result [4] | binding result (Human C1q) | binding result [5] | Kd (Human C1q) [nM]
1 | Ab3 (anti-CD20 antibody HB20.3) with FAQ-YTE variant IgG1 Fc domain (antibody, Full IgG1; also called Ab3 FAQ-YTE; YTE-FAQ) heavy: QVQLQQPGAELVKPGASVKMSCKASGFTFTNYNMHWLKQTPGQGLEWIGAIYPENGDTSYNQKFKGKATLTADKASSTAYMHLSSLTSEDSAVYFCARFYYYGSYYGAMDYWGQGTSVTVSSASTKGPSVFPLAPSSKSTSGGTAALGCLVKDYFPEPVTVSWNSGALTSGVHTFPAVLQSSGLYSLSSVVTVPSSSLGTQTYICNVNHKPSNTKVDKRVEPKSCDKTHTCPPCPAPEFAGGPSVFLFPPKPKDTLYITREPEVTCVVVDVSHEDPEVKFNWYVDGVEVHNAKTKPREEQYNSTYRVVSVLTVLHQDWLNGKEYKCQVSNKALPAPIEKTISKAKGQPREPQVYTLPPSREEMTKNQVSLTCLVKGFYPSDIAVEWESNGQPENNYKTTPPVLDSDGSFFLYSKLTVDKSRWQQGNVFSCSVMHEALHNHYTQKSLSLSPGK light: DIQMTQSPASLSASVGETVTITCRASGNIHNYLAWYQQKQGKSPQLLVYNAKTLADGVPSRFSGSGSGTQFSLKINSLQPEDFGSYYCQHFWSTPWTFGGGTKLEIKRTVAAPSVFIFPPSDEQLKSGTASVVCLLNNFYPREAKVQWKVDNALQSGNSQESVTEQDSKDSTYSLSSTLTLSKADYEKHKVYACEVTHQGLSSPVTKSFNRGEC | no binding | no binding | no binding | no binding | no binding | no binding | –
2 | Ab3 (anti-CD20 antibody HB20.3) with FE-YTE variant IgG1 Fc domain (antibody, Full IgG1; also called Ab3 FE-YTE; YTE-FE) heavy: QVQLQQPGAELVKPGASVKMSCKASGFTFTNYNMHWLKQTPGQGLEWIGAIYPENGDTSYNQKFKGKATLTADKASSTAYMHLSSLTSEDSAVYFCARFYYYGSYYGAMDYWGQGTSVTVSSASTKGPSVFPLAPSSKSTSGGTAALGCLVKDYFPEPVTVSWNSGALTSGVHTFPAVLQSSGLYSLSSVVTVPSSSLGTQTYICNVNHKPSNTKVDKRVEPKSCDKTHTCPPCPAPEFEGGPSVFLFPPKPKDTLYITREPEVTCVVVDVSHEDPEVKFNWYVDGVEVHNAKTKPREEQYNSTYRVVSVLTVLHQDWLNGKEYKCKVSNKALPAPIEKTISKAKGQPREPQVYTLPPSREEMTKNQVSLTCLVKGFYPSDIAVEWESNGQPENNYKTTPPVLDSDGSFFLYSKLTVDKSRWQQGNVFSCSVMHEALHNHYTQKSLSLSPGK light: DIQMTQSPASLSASVGETVTITCRASGNIHNYLAWYQQKQGKSPQLLVYNAKTLADGVPSRFSGSGSGTQFSLKINSLQPEDFGSYYCQHFWSTPWTFGGGTKLEIKRTVAAPSVFIFPPSDEQLKSGTASVVCLLNNFYPREAKVQWKVDNALQSGNSQESVTEQDSKDSTYSLSSTLTLSKADYEKHKVYACEVTHQGLSSPVTKSFNRGEC | – | – | – | – | – | – | 360
3 | Ab3 (anti-CD20 antibody HB20.3) with FQG-YTE variant IgG1 Fc domain (antibody, Full IgG1; also called Ab3 FQG-YTE; YTE-FQG) heavy: QVQLQQPGAELVKPGASVKMSCKASGFTFTNYNMHWLKQTPGQGLEWIGAIYPENGDTSYNQKFKGKATLTADKASSTAYMHLSSLTSEDSAVYFCARFYYYGSYYGAMDYWGQGTSVTVSSASTKGPSVFPLAPSSKSTSGGTAALGCLVKDYFPEPVTVSWNSGALTSGVHTFPAVLQSSGLYSLSSVVTVPSSSLGTQTYICNVNHKPSNTKVDKRVEPKSCDKTHTCPPCPAPEFQGGPSVFLFPPKPKDTLYITREPEVTCVVVDVSHEDPEVKFNWYVDGVEVHNAKTKPREEQYNSTYRVVSVLTVLHQDWLNGKEYKCKVSNKALPAGIEKTISKAKGQPREPQVYTLPPSREEMTKNQVSLTCLVKGFYPSDIAVEWESNGQPENNYKTTPPVLDSDGSFFLYSKLTVDKSRWQQGNVFSCSVMHEALHNHYTQKSLSLSPGK light: DIQMTQSPASLSASVGETVTITCRASGNIHNYLAWYQQKQGKSPQLLVYNAKTLADGVPSRFSGSGSGTQFSLKINSLQPEDFGSYYCQHFWSTPWTFGGGTKLEIKRTVAAPSVFIFPPSDEQLKSGTASVVCLLNNFYPREAKVQWKVDNALQSGNSQESVTEQDSKDSTYSLSSTLTLSKADYEKHKVYACEVTHQGLSSPVTKSFNRGEC | no binding | no binding | no binding | no binding | no binding | no binding | –
4 | Ab3 (anti-CD20 antibody HB20.3) with FQQ-YTE variant IgG1 Fc domain (antibody, Full IgG1; also called Ab3 FQQ-YTE; YTE-FQQ) heavy: QVQLQQPGAELVKPGASVKMSCKASGFTFTNYNMHWLKQTPGQGLEWIGAIYPENGDTSYNQKFKGKATLTADKASSTAYMHLSSLTSEDSAVYFCARFYYYGSYYGAMDYWGQGTSVTVSSASTKGPSVFPLAPSSKSTSGGTAALGCLVKDYFPEPVTVSWNSGALTSGVHTFPAVLQSSGLYSLSSVVTVPSSSLGTQTYICNVNHKPSNTKVDKRVEPKSCDKTHTCPPCPAPEFQGGPSVFLFPPKPKDTLYITREPEVTCVVVDVSHEDPEVKFNWYVDGVEVHNAKTKPREEQYNSTYRVVSVLTVLHQDWLNGKEYKCQVSNKALPAPIEKTISKAKGQPREPQVYTLPPSREEMTKNQVSLTCLVKGFYPSDIAVEWESNGQPENNYKTTPPVLDSDGSFFLYSKLTVDKSRWQQGNVFSCSVMHEALHNHYTQKSLSLSPGK light: DIQMTQSPASLSASVGETVTITCRASGNIHNYLAWYQQKQGKSPQLLVYNAKTLADGVPSRFSGSGSGTQFSLKINSLQPEDFGSYYCQHFWSTPWTFGGGTKLEIKRTVAAPSVFIFPPSDEQLKSGTASVVCLLNNFYPREAKVQWKVDNALQSGNSQESVTEQDSKDSTYSLSSTLTLSKADYEKHKVYACEVTHQGLSSPVTKSFNRGEC | no binding | no binding | no binding | no binding | no binding | no binding | –
5 | Ab4 (anti-C5a antibody 1B8) with FAQ-YTE variant IgG1 Fc domain (antibody, Full IgG1; also called Ab4 FAQ-YTE) heavy: EVQLLESGGGLVQPGGSLRLSCAASGFTFSSYVMNWVRQAPGKGLEWVSSISPSGGRTWYADSVKGRFTISRDNSKNTLYLQMNSLRAEDTAVYYCARSDGSAAGFLGYWGQGTLVTVSSASTKGPSVFPLAPSSKSTSGGTAALGCLVKDYFPEPVTVSWNSGALTSGVHTFPAVLQSSGLYSLSSVVTVPSSSLGTQTYICNVNHKPSNTKVDKRVEPKSCDKTHTCPPCPAPEFAGGPSVFLFPPKPKDTLYITREPEVTCVVVDVSHEDPEVKFNWYVDGVEVHNAKTKPREEQYNSTYRVVSVLTVLHQDWLNGKEYKCQVSNKALPAPIEKTISKAKGQPREPQVYTLPPSREEMTKNQVSLTCLVKGFYPSDIAVEWESNGQPENNYKTTPPVLDSDGSFFLYSKLTVDKSRWQQGNVFSCSVMHEALHNHYTQKSLSLSPGK light: QSALTQPPSASGTPGQRVTISCSGTNSNIGSNYVFWYQQLPGTAPKLLIFESNRRPSGVPDRFSGSKSDTSASLAISGLRSEDEADYYCATWDDTLIAPVFGSGTKVTVLGQPKANPTVTLFPPSSEELQANKATLVCLISDFYPGAVTVAWKADSSPVKAGVETTTPSKQSNNKYAASSYLSLTPEQWKSHRSYSCQVTHEGSTVEKTVAPAEC | no binding | no binding | no binding | no binding | no binding | no binding | –
6 | Ab4 (anti-C5a antibody 1B8) with FE-YTE variant IgG1 Fc domain (antibody, Full IgG1; also called Ab4 FE-YTE) heavy: EVQLLESGGGLVQPGGSLRLSCAASGFTFSSYVMNWVRQAPGKGLEWVSSISPSGGRTWYADSVKGRFTISRDNSKNTLYLQMNSLRAEDTAVYYCARSDGSAAGFLGYWGQGTLVTVSSASTKGPSVFPLAPSSKSTSGGTAALGCLVKDYFPEPVTVSWNSGALTSGVHTFPAVLQSSGLYSLSSVVTVPSSSLGTQTYICNVNHKPSNTKVDKRVEPKSCDKTHTCPPCPAPEFEGGPSVFLFPPKPKDTLYITREPEVTCVVVDVSHEDPEVKFNWYVDGVEVHNAKTKPREEQYNSTYRVVSVLTVLHQDWLNGKEYKCKVSNKALPAPIEKTISKAKGQPREPQVYTLPPSREEMTKNQVSLTCLVKGFYPSDIAVEWESNGQPENNYKTTPPVLDSDGSFFLYSKLTVDKSRWQQGNVFSCSVMHEALHNHYTQKSLSLSPGK light: QSALTQPPSASGTPGQRVTISCSGTNSNIGSNYVFWYQQLPGTAPKLLIFESNRRPSGVPDRFSGSKSDTSASLAISGLRSEDEADYYCATWDDTLIAPVFGSGTKVTVLGQPKANPTVTLFPPSSEELQANKATLVCLISDFYPGAVTVAWKADSSPVKAGVETTTPSKQSNNKYAASSYLSLTPEQWKSHRSYSCQVTHEGSTVEKTVAPAEC | – | – | – | – | binds | – | –

Reference: US20150125444A1 (AstraZeneca / MedImmune, published 2015)
